Like-named read-outs stand apart in the source and are kept apart here.
B1: 7G6-HCzu12-LCzu17 (antibody, human IgG1, kappa, V domains shown)
VH: EVQLLESGGGLVQPGGSLRLSCAASGYTFTTYWITWVRQAPGKGLEWVGDIYPGSSICNYNEKFKSRFTISVDNSKSTAYLQMNSLRAEDTAVYYCAREDGYDAWFAYWGQGTLVTVSS
VL: DVQMTQSPSSLSASVGDRVTITCRSSQSIVHSNGNTYLNWYQQKPGKAPKLLISKVSNRFSGVPSRFSGSGSGTDFTLTISSLQPEDFATYYCFQGSHVPFTFGQGTKLEIKR
notes: humanized, human IgG1 kappa; also called 7G6-LCzu17
B2: 7G6-HCzu5-LCzu9 (antibody, human IgG1, kappa, V domains shown)
VH: QVQLVQSGAEVKKPGASVKVSCKASGYTFTTYWITWVRQAPGQGLEWMGDIYPGSSISNYNEKFKSRVTMTVDTSTSTAYMELSSLRSEDTAVYYCAREDGYDAWFAYWGQGTLVTVSS
VL: DVVMTQSPLSLPVTLGQPASISCRSSQSIVHSNGNTYLNWFQQRPGQSPRRLISKVSNRFSGVPDRFSGSGSGTDFTLKISRVEAEDVGVYYCFQGSHVPFTFGQGTKLEIKR
notes: humanized, human IgG1 kappa; also called 7G6-LCzu9

Legend:
[1] = target: T1, Human Tau 2N4R, wild type, recombinant full length (human, UniProt P10636 2-758); test: direct ELISA on coated 2N4R Tau
T1 construct: Full length 2N4R isoform; monomer in SPR and ELISA; heparin-induced aggregates or seeds in the functional assays; also called Tau441; Tau-441
T1 sequence (P10636 other isoform, or with tags, fused parts or gaps limits assumed): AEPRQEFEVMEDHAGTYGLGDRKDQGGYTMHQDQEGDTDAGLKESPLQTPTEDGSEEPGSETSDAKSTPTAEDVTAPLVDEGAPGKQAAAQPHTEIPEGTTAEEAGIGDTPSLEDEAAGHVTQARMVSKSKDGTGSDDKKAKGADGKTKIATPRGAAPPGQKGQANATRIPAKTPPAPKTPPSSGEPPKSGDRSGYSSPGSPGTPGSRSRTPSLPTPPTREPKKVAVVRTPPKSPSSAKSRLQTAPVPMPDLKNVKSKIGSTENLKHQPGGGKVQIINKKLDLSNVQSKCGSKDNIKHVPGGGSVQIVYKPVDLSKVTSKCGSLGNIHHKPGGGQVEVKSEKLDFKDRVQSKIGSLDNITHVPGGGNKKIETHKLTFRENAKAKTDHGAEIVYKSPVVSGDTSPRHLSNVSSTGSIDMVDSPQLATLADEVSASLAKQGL

[2] = target: T1, Human Tau 2N4R, wild type, recombinant …; test: direct ELISA on coated 2N4R Tau; remark: listed apart in the source
Experimental: To test direct binding to Tau, 2N4R Tau was coated on 96-well plates and various concentrations of humanized mAbs were added to the wells. MAbs bound to Tau were detected with either an HRP-conjugated anti-mouse antibody (mouse [ms]7G6) or anti-human antibody (remaining samples). Samples were incubated for 1 h at room temperature in 96-well plates coated with 2N4R Tau. Following washing, HRP-conjugated anti-mouse or anti-human detection antibodies were added to the wells. The anti-mouse antibody was used to detect ms7G6. The amount of HRP activity in each well was measured by QuantaBlu fluorescent substrate and the RFUs were detected by a SpectraMax M5 plate reader.
Tau binding was analyzed by a direct ELISA as above. Samples were incubated for 1 hour at room temperature in 96-well plates coated with wild-type 2N4R Tau. After a wash step, HRP-conjugated anti-mouse or anti-human detection antibodies were added to the wells. The anti-mouse antibody was used to detect ms7G6. The amount of HRP activity in each well was measured by QuantaBlu fluorescent substrate and the RFUs were detected by a SpectraMax M5 plate reader. […] Therefore, Vκ Glu34 was critical for antigen binding.

Row | Binder | binding result [1] | binding result [2]
1 | B1 | no binding | –
2 | B2 | – | no binding
